Measured values reported in the supplement of paper PMC10899765.

How the values were obtained:
Details in all cases: 20 nM; 72 h
MCF10A [1] = experiment: percent viability (nuclei count relative to siNT); higher = more viable cells
Description: (§1)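 After 72 h, cells were fixed and stained with Hoechst and anti-fibrillarin, and nucleoli per nucleus were counted with CellProfiler. Values are plate-adjusted percent effect for the one-nucleolus and 5+ nucleoli phenotypes, normalised to siNT (0%) and to the positive controls siNOL11 or siKIF11 (100%), as the mean of biological triplicates. Percent viability is the nuclei count relative to siNT.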

MCF10A [2] = experiment: 5+ nucleoli phenotype percent effect (relative to siNT 0% and siKIF11 100%); higher = more cells with five or more nucleoli
Description: as §1

MCF10A [3] = experiment: one-nucleolus phenotype percent effect (relative to siNT 0% and siNOL11 100%); higher = more cells with one nucleolus (ribosome biogenesis inhibition)
Description: as §1

Row | Sequence | percent viability (MCF10A [1]) | 5+ nucleoli phenotype percent effect (MCF10A [2]) | one-nucleolus phenotype percent effect (MCF10A [3])
1 | UUUCUGUCUUUUCUGGUCCAG [hsa-miR-4743-3p] | 17.7% | -25.7% | 57.9%
2 | UGAAACAUACACGGGAAACCUC [hsa-miR-494] | 24.5% | -37.3% | 34.9%
3 | CCCUGGGGUUCUGAGGACAUG [hsa-miR-6852-5p] | 32.3% | 29% | 8.28%
4 | CUGCGCAAGCUACUGCCUUGCU [hsa-let-7i-3p] | 110% | 0.0505% | -4.21%
5 | CUACUUCUACCUGUGUUAUCAU [hsa-miR-3682-5p] | 25.2% | -33% | 19.8%
6 | UUACAGUUGUUCAACCAGUUACU [hsa-miR-582-5p] | 165% | 12.8% | -29.2%
7 | UACCACAGGGUAGAACCACGG [hsa-miR-140-3p] | 118% | 47.1% | -23.5%
8 | UUAAUGCUAAUCGUGAUAGGGGU [hsa-miR-155-5p] | 38.2% | -38.5% | 8.74%
9 | AAUAUUAUACAGUCAACCUCU [hsa-miR-656] | 66.6% | 6.28% | 3.93%
10 | CAGGAAGGAUUUAGGGACAGGC [hsa-miR-4476] | 23.3% | -8.98% | 14%
11 | UUGGAGGGUGUGGAAGACAUC [hsa-miR-6515-5p] | 19% | -18.5% | 40.1%
12 | CAAGGGACCAAGCAUUCAUUAU [hsa-miR-4475] | 37.7% | -16.1% | 7.86%
13 | UGAUAUGUUUGAUAUAUUAGGU [hsa-miR-190a] | 116% | 47.6% | -13.2%
14 | AGCUGUACCUGAAACCAAGCA [hsa-miR-4718] | 77.5% | -2.07% | 9.98%
15 | AUCCCCAGAUACAAUGGACAA [hsa-miR-2355-5p] | 68.5% | -14.8% | 1.32%
16 | UGGAAGACUAGUGAUUUUGUUGU [hsa-miR-7-5p] | 51.8% | -32.4% | 25.5%
17 | GAUUGAGACUAGUAGGGCUAGGC [hsa-miR-4461] | 31.4% | -3.16% | 3.4%
18 | AAAAGUAAUUGUGGAUUUUGCU [hsa-miR-548ab] | 67.8% | 30.5% | -19.3%
19 | AAAAUGGUGCCCUAGUGACUACA [hsa-miR-224-3p] | 13.9% | -15% | 12.8%
20 | AGGAGAGUGGAUUCCAGGUGGU [hsa-miR-5192] | 24.2% | 20.1% | 10.4%

Row | Sequence | percent viability (MCF10A [1]) | 5+ nucleoli phenotype percent effect (MCF10A [2]) | one-nucleolus phenotype percent effect (MCF10A [3])
21 | UGUGCAAAUCCAUGCAAAACUGA [hsa-miR-19b-3p] | 82.4% | -2.64% | 4.13%
22 | AAGUGCCGCCAUCUUUUGAGUGU [hsa-miR-371a-3p] | 45.8% | -0.0057% | -8.12%
23 | CUUUGAGCACAUGAGCAGACGGA [hsa-miR-8055] | 92.5% | -14.2% | -6.93%
24 | UCUGCUCAUACCCCAUGGUUUCU [hsa-miR-767-3p] | 129% | 54.2% | -21.6%
25 | CACUUAGCAGGUUGUAUUAUAU [hsa-miR-374c-3p] | 50.7% | 0.0114% | 0.51%
26 | GGAGGGGUCCCGCACUGGGAGG [hsa-miR-1914-3p] | 126% | 46.6% | -23.7%
27 | UGAGGGGCAGAGAGCGAGACUUU [hsa-miR-423-5p] | 41.6% | -10.7% | 13.3%
28 | CCUGCUGGUCAGGAGUGGAUACUG [hsa-miR-3692-5p] | 32.9% | 6.3% | 2.08%
29 | UGCCCUUCUCUCCUCCUGCCU [hsa-miR-6886-3p] | 35.2% | -2.46% | -6.37%
30 | UCUGGGGAUGAGGACAGUGUGU [hsa-miR-4700-5p] | 35.8% | -10.2% | 29%
31 | CCCUUCCCUCACUCUUCUCUCAG [hsa-miR-6734-3p] | 44.4% | 13.3% | -3.15%
32 | UCUGUGCCCCUACUUCCCAG [hsa-miR-6889-3p] | 63% | 16.2% | -15.5%
33 | AGGGCCGAAGGGUGGAAGCUGC [hsa-miR-6877-5p] | 41.7% | -6.96% | 10.5%
34 | CAAAAACCACAGUUUCUUUUGC [hsa-miR-548d-3p] | 65.5% | -4.46% | -0.45%
35 | ACGGUGCUGGAUGUGGCCUUU [hsa-miR-1250] | 25% | -44.5% | 57.9%
36 | AAUCAUACACGGUUGACCUAUU [hsa-miR-154-3p] | 67.2% | -5.26% | -0.992%
37 | GUGUGGCCGGCAGGCGGGUGG [hsa-miR-7108-5p] | 55.9% | 6.78% | -12.6%
38 | AAGCCCUGUCUCCUCCCAUCU [hsa-miR-6779-3p] | 68.1% | -41.9% | 9.83%
39 | CCUAAUUUGAACACCUUCGGUA [hsa-miR-4735-5p] | 80.8% | 8.71% | -11.3%
40 | UGUGGACAGUGAGGUAGAGGGAGU [hsa-miR-3138] | 47.9% | 2.7% | -2.72%

Row | Sequence | percent viability (MCF10A [1]) | 5+ nucleoli phenotype percent effect (MCF10A [2]) | one-nucleolus phenotype percent effect (MCF10A [3])
41 | GUUUUACCACCUCCAGGAGACU [hsa-miR-2681-5p] | 36% | 3.14% | -33.4%
42 | GUGUCUGCUUCCUGUGGGA [hsa-miR-632] | 37% | -24.2% | 31.3%
43 | UGACGCCCCUUCUGAUUCUGCCU [hsa-miR-6786-3p] | 50.9% | -4.1% | 0.306%
44 | GAAGAUGGACGUACUUU [hsa-miR-4426] | 28.5% | -32.9% | 31.4%
45 | CUUGGCACCUAGCAAGCACUCA [hsa-miR-1271-5p] | 91.1% | 68.8% | -2.87%
46 | CAGCAGGAGGUGAGGGGAG [hsa-miR-6165] | 101% | 36.7% | -18.4%
47 | UCAGGCAAAGGGAUAUUUACAGA [hsa-miR-4742-5p] | 45.1% | 6.44% | -11.1%
48 | GAAAACGACAAUGACUUUUGCA [hsa-miR-548ad] | 129% | 40.5% | -29.2%
49 | AAAUUAUUGUACAUCGGAUGAG [hsa-miR-944] | 33.3% | -36.2% | 9.85%
50 | CUGCCCUAGUCUAGCUGAAGCU [hsa-miR-3157-3p] | 170% | 27.8% | -21.2%
51 | CUAUACAGUCUACUGUCUUUCC [hsa-let-7f-2-3p] | 70.8% | 4.65% | -3.58%
52 | UCGGGCCUGGGGUUGGGGGAGC [hsa-miR-6749-5p] | 37.7% | 21.9% | -10.1%
53 | UGCAAAAGUAAUUGCAGUUUUUG [hsa-miR-548x-5p] | 63% | -24.2% | -9.86%
54 | UGAGGGAGUGGGUGGGAGG [hsa-miR-6127] | 39.8% | -15.1% | 3.31%
55 | AUCCAGUUCUCUGAGGGGGCU [hsa-miR-5195-3p] | 46.4% | 2.52% | 13.3%
56 | AAUCAUACAGGGACAUCCAGUU [hsa-miR-487a] | 56% | -7.13% | -6.53%
57 | AUGGUCACCUCCGGGACU [hsa-miR-5587-5p] | 60.6% | 41.6% | -15.8%
58 | UCACAAGUCAGGCUCUUGGGAC [hsa-miR-125b-2-3p] | 37.1% | -44.2% | 59.8%
59 | ACCUUGCAUCUGCAUCCCCAG [hsa-miR-6841-3p] | 28.6% | -39.3% | 15%
